T1: 10E8-GT10.1 epitope scaffold (synthetic construct, circularly …, N-linked glycosylation sites added (positions not given))
T1 chain: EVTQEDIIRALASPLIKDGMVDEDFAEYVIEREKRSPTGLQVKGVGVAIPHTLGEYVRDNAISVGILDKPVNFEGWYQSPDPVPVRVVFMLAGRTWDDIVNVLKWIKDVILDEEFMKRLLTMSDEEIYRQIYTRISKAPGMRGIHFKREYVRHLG

T2: 10E8-GT10.2 epitope scaffold (designed scaffold 10E8-GT10.2 with …, N-linked glycosylation sites added (positions not given))
T2 chain: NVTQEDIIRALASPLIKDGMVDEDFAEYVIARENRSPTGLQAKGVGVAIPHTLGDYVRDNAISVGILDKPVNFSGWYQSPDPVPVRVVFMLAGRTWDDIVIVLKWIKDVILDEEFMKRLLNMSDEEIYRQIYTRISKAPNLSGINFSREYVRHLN

T3: 10E8-B1 epitope scaffold (synthetic construct (resurfaced …))
T3 chain: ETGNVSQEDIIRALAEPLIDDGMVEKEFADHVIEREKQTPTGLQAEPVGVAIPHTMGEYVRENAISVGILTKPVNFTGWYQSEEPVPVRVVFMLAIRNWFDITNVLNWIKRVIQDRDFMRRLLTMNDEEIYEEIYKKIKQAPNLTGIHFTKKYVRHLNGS

T4: 10E8-GT12 epitope scaffold (synthetic construct (HIV-1 MPER graft …, N-linked glycosylation sites added (positions not given)))
T4 chain: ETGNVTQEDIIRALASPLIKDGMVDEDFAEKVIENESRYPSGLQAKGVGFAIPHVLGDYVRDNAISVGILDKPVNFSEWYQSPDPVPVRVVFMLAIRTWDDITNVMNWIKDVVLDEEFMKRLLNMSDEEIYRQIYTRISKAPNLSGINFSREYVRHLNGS

T5: 10E8-GT4 (synthetic construct (T117-based HIV-1 …))
T5 construct: source: FreeStyle 293F, purified (IMAC, SEC)
T5 chain: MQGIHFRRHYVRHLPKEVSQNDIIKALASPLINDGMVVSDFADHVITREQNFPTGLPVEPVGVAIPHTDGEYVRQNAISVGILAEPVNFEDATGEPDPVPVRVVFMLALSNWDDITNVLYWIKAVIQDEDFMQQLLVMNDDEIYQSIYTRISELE

T6: T117v2 (designed scaffold T117v2 with HIV-1 …)
T6 construct: also called T117v2 scaffold; source: FreeStyle 293F, purified (IMAC, SEC)
T6 chain: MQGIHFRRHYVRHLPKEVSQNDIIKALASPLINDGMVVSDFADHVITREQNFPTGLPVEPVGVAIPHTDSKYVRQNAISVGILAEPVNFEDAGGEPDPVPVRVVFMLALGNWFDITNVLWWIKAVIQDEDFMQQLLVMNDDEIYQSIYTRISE


Legend:
[1] = biological target: T1, 10E8-GT10.1 epitope scaffold
[2] = biological target: T2, 10E8-GT10.2 epitope scaffold
10E8-B1 epitope scaffold = biological target: T3, 10E8-B1 epitope scaffold
[3] = biological target: T4, 10E8-GT12 epitope scaffold
10E8-GT4 = biological target: T5, 10E8-GT4; experiment: SPR; ProteOn XPR36, GLC sensor chip; antibody as ligand, monomeric scaffold as analyte; monovalent KD; conditions: both partners purified
T117v2 = biological target: T6, T117v2; experiment: as above; conditions: both partners purified

| Binder | Kd [1] [µM] | Kd [2] [µM] | Kd (10E8-B1 epitope scaffold) [µM] | also measured |
| --- | --- | --- | --- | --- |
| MPER-068 (antibody, V domains shown) VH: QVQLQESGPGLVKPSETLSLTCTVSGGSISSYYWSWIRQPPGKGLEWIGYIYYSGSTNYNPSLKSRVTISVDTSKNQFSLKLSSVTAADTAVYYCARSPSPYYDFWSGYFQETNWFDPWGQGTLVTVSS VL: not shown | 0.7 | 2.1 |  |  |
| NHP-10E8_MPER-GT10v55_W26-06 (antibody, V domains shown) VH: QVQLQESGPGLVKPSETLSLTCAVSGDSISSGYYYWSWIRQPPGKGLEWIGYITYSGSTSYNPSLKSQVTISRDTAKNQFSLKLSSVTAADTAVYYCARGGTYYNFWSDGSPQYNRFGFWGPGVPVTVSS VL: DIVMTQTPLSLPVTPGEPASISCRSSQSLLHSEDGNTYLDWYLQKPGQSPQLLIYEVSNRASGVPDRFSGSGSDTDFTLKISRVEAEDVGVYYCMQGLEFPLTFGGGTKVELK |  | 0.00145 | 6.42 |  |
| NHP-10E8_MPER-GT10v55_W21-19 (antibody, V domains shown) VH: QVQLQESGPGLLKPSDTLSLICAVSGGSISGGYGWGWIRQPPGKGLEWIGSIYSSNGNTYYNPSLKSRVTISTDTSKNQFSLKLNSVTAADTAVYYCGSGGLSYSFWSGYQSLHRLHVWGPGVLVTVSS VL: DIVMTQTPLSLPVTPGEPASISCRSSQSLLDSEDGNTYLDWYLQKPGQSPQLLIYEVSKRASGVPDRFSGSGSDTDFTLKISRVEAEDVGVYYCMQGLEFPFTFGPGTKLDIK |  | 0.000579 | 0.415 |  |
| MPER_HuGL-106 (MPER-102) (antibody, V domains shown) VH: EVQLVESGGGLVQPGRSLRLSCTASGFTFGDYAMSWVRQAPGKGLEWVGFIRSKAYGGTTEYAASVKGRFTISRDDSKSIAYLQMNSLKTEDTAVYYCTRDKVGYDFWSGDYYYYGMDVWGQGTTVTVSS VL: not shown |  |  |  | Kd [3]: 1.14 µM |
| NHP-10E8_MPER-GT10v55_W21-12 (antibody, V domains shown) VH: EVQLVESGGGLVQPGGSLRLSCAASGFTFSSYGMHWVRQAPGKGLEWVAVIWYDGSKKYYADSVKDRFTISRDNSKNMLYLQMNNLKFEDTAVYYCARVAPDYDFWSGSYTYSGLDSWGQGVVVTVSS VL: DIQMTQSPSSLSASVGDTVTITCRASQSISSWLDWYQQKPGKAPKLLIYKASNLQSGVPSRFSGSGSGTHFTLTISSLQPEDFATYYCLQYNSSPYSFGQGTKVEIK |  | 0.000842 | 1.01 |  |
| MPER-072 (antibody, V domains shown) VH: QVQLQESGSGLVKPSQTLSLTCAVSGGSISSGGYSWSWIRQPPGKGLEWIGYIYHSGSTYYNPSLKSRVTISVDRSKNQFSLKLSSVTAADTAVYYCARAGHNYDFWSGYYPVGGAFDIWGQGTMVTVSS VL: not shown | 13 | 16 |  |  |
| MPER-071 (antibody, V domains shown) VH: QVQLVQSGAEVKKPGASVKVSCKASGYTFTSYDINWVRQATGQGLEWMGWMNPNSGNTGYAQKFQGRVTMTRNTSISTAYMELSSLRSEDTAVYYCARGITYYDFWSGYYPTPYYFDYWGQGTLVTVSS VL: not shown | 6.4 |  |  |  |
| NHP-Comp_MPER-GT10v55_W26-11 (antibody, V domains shown) VH: EVQLVESGGGLAKPGGSLRLSCAASGFTFSNYWMCWVRQAPGKGLEWISVINSVTSGTYYADSVKGRFTISRENAKNTLYLQMDRLRVEDTAVYYCAWGLGLTAPPVYWGQGVLVTVSS VL: ETVVTQEPSLSVSPGGTVTLTCGLSSGSVSTSNYPSWYQQTPGQAPRTLVYRTNIRPSGVPDRFSGSILGNKAALTITGAQADDESDFYCLFYMGSGIWVFGGGTRLTV |  | 0.0128 |  |  |
| MPER-063 (antibody, V domains shown) VH: QVQLVQSGAEVKKPGSSVKVSCKASGGTFSSYAISWVRQAPGQGLEWMGGIIPIFGTANYAQKFQGRVTITADESTSTAYMELSSLRSEDTAVYYCARGGTHYDFWSGYSDYYYGMDVWGKGTTVTVSS VL: not shown | 4 | 6.6 |  |  |
| 10E8-iGL1 (antibody, V domains shown, source: FreeStyle 293F or ExpiCHO, purified (protein A)) VH: not shown VL: SSELTQDPAVSVALGQTVRITCQGDSLRSYYASWYQQKPGQAPVLVIYGKNNRPSGIPDRFSGSSSGNTASLTITGAQAEDEADYYCSSRDKSGSRLSVFGGGTKLTVL |  |  |  | Kd (10E8-GT4): 0.25 µM; koff (10E8-GT4): 25 s⁻¹; kon (10E8-GT4): 1e+08 M⁻¹ s⁻¹ |
| 10E8-iGL2 (antibody, V domains shown, source: FreeStyle 293F or ExpiCHO, purified (protein A)) VH: not shown VL: SSELTQDPAVSVALGQTVRITCQGDSLRSYYASWYQQKPGQAPVLVIYGKNNRPSGIPDRFSGSSSGNTASLTITGAQAEDEADYYCNSRDSSGNHLWVFGGGTKLTVL |  |  |  | Kd (T117v2): 17 µM; koff (T117v2): 0.11 s⁻¹; kon (T117v2): 6600 M⁻¹ s⁻¹ |
| NHP-10E8_MPER-GT10v55_W21-04 (antibody, V domains shown) VH: EVQLVESGGGLVQPGGSLRLSCVASGFTFSDYGFDWVRQAPGKGLEWVGFIRSKDYGGSTEYAASVKGRFTISRDDSKNTAYLQMTSLKAEDTAVYFCTRDLGFYNFWTGYYEVNRFDVWGAGVLVTVSS VL: QPVLTQPTSLSASPGASARLTCTLRSGISVGSYRIFWYQQKPGSPPRYLLNYHTDSDNHQGSGVPSRFSGSKDASANAGILLISGLQSDDEADYYCMIWHNNACFFGGGTRLTV |  | 0.000115 | 22.9 |  |
| NHP-10E8_MPER-GT10v55_W26-05 (antibody, V domains shown) VH: EVQLVESGGGLVQPGGSLRLSCAASGFTFSNYWMNWVRQAPGKGLEWVGFIKNKADGGTAAYAESVKGRFTISRDDSKNTLYLQMNSLKTEDTAVYYCTREATFYNFWSGYYTPQYGLDSWGQGVVVTVSS VL: QPVLTQPTSLSASPGASARLTCTLSSGISVGSYRIFWYQQKPGSPPRYLLNYHTDSDKHQGSGVPSRFSGSKDASANAGILLISGLQSEDEADYYCMIWHNNAHGLFGGGTRLTV |  | 0.263 | 9.68 |  |
| 10E8 (antibody, V domains shown, also called mature 10E8; 10E8 bnAb; source: FreeStyle 293F or ExpiCHO, purified (protein A)) VH: EVQLVESGGGLVKPGGSLRLSCSASGFDFDNAWMTWVRQPPGKGLEWVGRITGPGEGWSVDYAAPVEGRFTISRLNSINFLYLEMNNLRMEDSGLYFCARTGKYYDFWSGYPPGEEYFQDWGRGTLVTVSS VL: SYELTQETGVSVALGRTVTITCRGDSLRSHYASWYQKKPGQAPILLFYGKNNRPSGVPDRFSGSASGNRASLTISGAQAEDDAEYYCSSRDKSGSRLSVFGGGTKLTVL |  |  |  | Kd (T117v2): 0.00094 µM; Kd (10E8-GT4): 0.0095 µM |
| MPER-055 (antibody, V domains shown) VH: not shown VL: DIQMTQSPSSLSASVGDRVTITCRASQGIRNDLGWYQQKPGKAPKRLIYAASSLQSGVPSRFSGSGSGTEFTLTISSLQPEDFATYYCLQHNSYPLSFGGGTKVEIK | 16 | 22 |  |  |
| NHP-10E8_MPER-GT10v55_W26-03 (antibody, V domains shown) VH: QVQLQESGPGVVKPSETLSLTCAVSGGSISDNYWWTWIRQPPGKGLEWIGYIYGSNTSTNYNPSLKSRVTISKDTSKNQFSLKLSSVTAADTAVYYCARDREFYNFWSGYYGAYGLDSWGQGVVVTVSS VL: QPVLTQPTSLSASPGASARLSCTLSSGINVGSYSIYWYQQKPGSPPRYLLYYDSDSNKHQGSGVPSRFSGSNDASANAGLLLISGLQSEDEADYYCAIWHSSTYYIFGGGTRLTV |  | 0.000178 | 0.84 |  |
| MPER-073 (antibody, V domains shown) VH: QVQLQESGPGLVKPSQTLSLTCTVSGGSISSGGYYWSWIRQHPGKGLEWIGYIYYSGSTYYNPSLKSRVTISVDTSKNQFSLKLSSVTAADTAVYYCARDCAVYDFWSGYGPGGWFDPWGQGTLVTVSS VL: not shown | 7.3 | 20 |  |  |
| MPER-070 (antibody, V domains shown) VH: QVQLQESGPGLVKPSETLSLTCTVSGGSISSSSYYWGWIRQPPGKGLEWIGSIYYSGSTYYNPSLKSRVTISVDTSKNQFSLKLSSVTAADTAVYYCARHHPHAYDFWSGYYSERYYFDYWGQGTLVTVSS VL: not shown | 4.1 | 13 |  |  |
| NHP-10E8_MPER-GT10v55_W3-20 (antibody, V domains shown) VH: EVQLVESGGGLVQPGGSLRLSCAASGFSFSNYWMSWVRQAPGKGLEWVGFIKNKADGGTAAYAESVKGRFTISRDDSKNTLYLQMNSLKTEDTAVYFCARDLGRYNFWSAFYSQNRFDVWGPGVLVTVSS VL: SYEVTQPPSVSVSPGQMARITCGGDNLGSKYVHWYQQKPAQAPVMVMYDDSERPSGIPERFSGSKSGNTATLTISGVEAGDEADYYCQVWDSSSDHPLFGGGTRLTV |  | 0.00482 | 4.27 |  |
| MPER-053 (antibody, V domains shown) VH: EVQLVESGGGLVQPGRSLRLSCTASGFTFGDYAMSWFRQAPGKGLEWVGFIRSKAYGGTTEYAASVKGRFTISRDDSKSIAYLQMNSLKTEDTAVYYCTREGAYYDFWSGYLTKVYGMDVWGQGTTVTVSS VL: not shown | 11 | 7.9 |  |  |
